Test results as given in patent publication US20240044046A1 (BIOATLA, published 2024).

How the values were obtained:
CD73 on MCF-7 cells = biological target: T1, CD73 on MCF-7 cells (human, UniProt P21589 27-549); assay: cell-based or functional assay
T1 sequence (looked up): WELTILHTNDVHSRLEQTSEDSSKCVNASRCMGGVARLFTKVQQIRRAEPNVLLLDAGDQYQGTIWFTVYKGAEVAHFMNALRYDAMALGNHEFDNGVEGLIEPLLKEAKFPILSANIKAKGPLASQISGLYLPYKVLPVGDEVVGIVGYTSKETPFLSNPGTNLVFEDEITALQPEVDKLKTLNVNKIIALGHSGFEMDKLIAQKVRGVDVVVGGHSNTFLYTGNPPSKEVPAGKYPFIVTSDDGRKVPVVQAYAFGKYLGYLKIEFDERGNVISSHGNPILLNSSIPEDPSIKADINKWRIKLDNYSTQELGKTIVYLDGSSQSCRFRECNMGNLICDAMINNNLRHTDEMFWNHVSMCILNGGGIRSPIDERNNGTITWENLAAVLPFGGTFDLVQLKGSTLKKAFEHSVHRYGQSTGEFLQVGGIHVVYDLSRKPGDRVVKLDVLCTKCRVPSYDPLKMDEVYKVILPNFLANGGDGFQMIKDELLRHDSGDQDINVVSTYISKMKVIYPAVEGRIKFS

B7H4 on T47D cells = biological target: T2, B7H4 on T47D cells (human, UniProt Q7Z7D3 25-282); assay: cell-based or functional assay
T2 sequence (looked up): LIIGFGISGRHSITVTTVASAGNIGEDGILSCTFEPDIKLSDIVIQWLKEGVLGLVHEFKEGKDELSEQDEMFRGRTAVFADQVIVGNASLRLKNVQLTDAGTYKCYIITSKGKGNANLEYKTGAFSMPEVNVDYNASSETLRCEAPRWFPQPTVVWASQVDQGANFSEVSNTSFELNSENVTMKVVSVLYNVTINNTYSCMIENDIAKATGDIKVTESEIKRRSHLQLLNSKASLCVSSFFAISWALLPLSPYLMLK

B1: BAP147-WT (antibody, V domains shown)
VH: EVQLLESGGGLVQPGGSLRLSCAASGFTFSSYAYSWVRQAPGKGLEWVSAISGSGGRTYYADSVKGRFTISRDNSKNTLYLQMNSLRAEDTAVYYCARLGYGRVDEWGRGTLVTVSS
VL: QSVLTQPPSASGTPGQRVTISCSGSLSNIGRNPVNWYQQLPGTAPKLLIYLDNLRLSGVPDRFSGSKSGTSASLAISGLQSEDEADYYCATWDDSHPGWTFGGGTKLTVL
EC50 (ng/mL), ADCC reporter bioassay, Palbociclib Isethionate-treated MCF-7 cells, pH6.0 (CD73 on MCF-7 cells): 1.26 ng/mL
EC50 (ng/mL), ADCC reporter bioassay, Palbociclib Isethionate-treated MCF-7 cells, pH7.4 (CD73 on MCF-7 cells): 1.16 ng/mL
EC50 (ng/mL), ADCC reporter bioassay, untreated MCF-7 cells, pH6.0 (CD73 on MCF-7 cells): 2.17 ng/mL
EC50 (ng/mL), ADCC reporter bioassay, untreated MCF-7 cells, pH7.4 (CD73 on MCF-7 cells): 1.07 ng/mL
pH7.4/pH6.0 ratio of ADCC EC50, Palbociclib Isethionate-treated MCF-7 cells (CD73 on MCF-7 cells): 0.92 ratio
pH7.4/pH6.0 ratio of ADCC EC50, untreated MCF-7 cells (CD73 on MCF-7 cells): 0.49 ratio

B2: BAP147-LC-L051D (antibody, V domains shown)
VH: EVQLLESGGGLVQPGGSLRLSCAASGFTFSSYAYSWVRQAPGKGLEWVSAISGSGGRTYYADSVKGRFTISRDNSKNTLYLQMNSLRAEDTAVYYCARLGYGRVDEWGRGTLVTVSS
VL: QSVLTQPPSASGTPGQRVTISCSGSLSNIGRNPVNWYQQLPGTAPKLLIYDDNLRLSGVPDRFSGSKSGTSASLAISGLQSEDEADYYCATWDDSHPGWTFGGGTKLTVL
EC50 (ng/mL), ADCC reporter bioassay, Palbociclib Isethionate-treated MCF-7 cells, pH6.0 (CD73 on MCF-7 cells): 28.9 ng/mL
EC50 (ng/mL), ADCC reporter bioassay, Palbociclib Isethionate-treated MCF-7 cells, pH7.4 (CD73 on MCF-7 cells): 134 ng/mL
EC50 (ng/mL), ADCC reporter bioassay, untreated MCF-7 cells, pH6.0 (CD73 on MCF-7 cells): 44.2 ng/mL
EC50 (ng/mL), ADCC reporter bioassay, untreated MCF-7 cells, pH7.4 (CD73 on MCF-7 cells): 106 ng/mL
pH7.4/pH6.0 ratio of ADCC EC50, Palbociclib Isethionate-treated MCF-7 cells (CD73 on MCF-7 cells): 4.62 ratio
pH7.4/pH6.0 ratio of ADCC EC50, untreated MCF-7 cells (CD73 on MCF-7 cells): 2.39 ratio

B3: BAP147-HC-Y101E (antibody, V domains shown)
VH: EVQLLESGGGLVQPGGSLRLSCAASGFTFSSYAYSWVRQAPGKGLEWVSAISGSGGRTYYADSVKGRFTISRDNSKNTLYLQMNSLRAEDTAVYYCARLGEGRVDEWGRGTLVTVSS
VL: QSVLTQPPSASGTPGQRVTISCSGSLSNIGRNPVNWYQQLPGTAPKLLIYLDNLRLSGVPDRFSGSKSGTSASLAISGLQSEDEADYYCATWDDSHPGWTFGGGTKLTVL
EC50 (ng/mL), ADCC reporter bioassay, Palbociclib Isethionate-treated MCF-7 cells, pH6.0 (CD73 on MCF-7 cells): 55.9 ng/mL
EC50 (ng/mL), ADCC reporter bioassay, Palbociclib Isethionate-treated MCF-7 cells, pH7.4 (CD73 on MCF-7 cells): 545 ng/mL
EC50 (ng/mL), ADCC reporter bioassay, untreated MCF-7 cells, pH6.0 (CD73 on MCF-7 cells): 173 ng/mL
EC50 (ng/mL), ADCC reporter bioassay, untreated MCF-7 cells, pH7.4 (CD73 on MCF-7 cells): 100 ng/mL
pH7.4/pH6.0 ratio of ADCC EC50, Palbociclib Isethionate-treated MCF-7 cells (CD73 on MCF-7 cells): 9.74 ratio
pH7.4/pH6.0 ratio of ADCC EC50, untreated MCF-7 cells (CD73 on MCF-7 cells): 0.577 ratio

B4: BA-091-00-2E2 (antibody, V domains shown)
VH: QVQLQQSDAELVKPGASVKISCKVSGYTFTDRTIHWMKQRPEQGLEWIGSIYPRDGSTKYNEKFKDKATLTADKSSSTAYMQLNSLTSEDSAVYFCARSVGYAFDYWGQGTTLTVSS
VL: DIVLTQSPASLAVSLGQRATISCRVSEGIDNYGFTFIHWYQQKPGQPPKLLIYRASNLQSGIPARFSGSGSRTDFTLTIYPVETDDVATYYCQQSDKDPFTFGSGTKLEIK
EC50 (ng/ml), ADCC reporter bioassay, Palbociclib Isethionate-treated T47D cells, pH 6.0 (B7H4 on T47D cells): 2.97 ng/ml
EC50 (ng/ml), ADCC reporter bioassay, Palbociclib Isethionate-treated T47D cells, pH 7.4 (B7H4 on T47D cells): 10.2 ng/ml
EC50 (ng/ml), ADCC reporter bioassay, untreated T47D cells, pH 6.0 (B7H4 on T47D cells): 7.55 ng/ml
EC50 (ng/ml), ADCC reporter bioassay, untreated T47D cells, pH 7.4 (B7H4 on T47D cells): 11.7 ng/ml
pH 7.4/pH 6.0 ratio of ADCC EC50, Palbociclib Isethionate-treated T47D cells (B7H4 on T47D cells): 3.41 ratio
pH 7.4/pH 6.0 ratio of ADCC EC50, untreated T47D cells (B7H4 on T47D cells): 1.54 ratio

B5: BA-091-02-04-04 (antibody, V domains shown)
VH: EVQLVQSGAEVKKPGATVKISCKVSGYTFTDRTIHWIRQSPSRGLEWLGSIYPRDGSTKYNEKFKDRVTITADKSTSTAYMELSSLRSEDTAVYYCARSVGYADDYWGQGTLVTVSS
VL: DVVMTQSPLSLPVTLGQPASISCRVSEGIDNYGFTFIHWYQQKPGKAPKLLIYRASNLQSGIPARFSGSGSGTEFTLTISSLQSEDFAVYYCQQSDKDPFTFGQGTKVEIK
EC50 (ng/ml), ADCC reporter bioassay, Palbociclib Isethionate-treated T47D cells, pH 6.0 (B7H4 on T47D cells): 27 ng/ml
EC50 (ng/ml), ADCC reporter bioassay, Palbociclib Isethionate-treated T47D cells, pH 7.4 (B7H4 on T47D cells): 149 ng/ml
EC50 (ng/ml), ADCC reporter bioassay, untreated T47D cells, pH 6.0 (B7H4 on T47D cells): 98.1 ng/ml
EC50 (ng/ml), ADCC reporter bioassay, untreated T47D cells, pH 7.4 (B7H4 on T47D cells): 429 ng/ml
pH 7.4/pH 6.0 ratio of ADCC EC50, Palbociclib Isethionate-treated T47D cells (B7H4 on T47D cells): 5.53 ratio
pH 7.4/pH 6.0 ratio of ADCC EC50, untreated T47D cells (B7H4 on T47D cells): 4.37 ratio
